Results reported in the supplement of paper PMC10724198.
± gives the standard deviation of the averaged measurements.

Test system: Saccharomyces cerevisiae
Assay: protein stability index of tFT-peptide fusion (C-terminal peptide) (PSI (0-1 scale)); higher = more stable (slower turnover)
Details: genetic background: wild type; temperature: 30 C
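Note: PSI is a weighted mean of sequencing reads over stability bins, variants kept only with over 10 reads, mCherry proximal and sfGFP distal, peptide attached via GGGS linker.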

Sequence	protein stability index
VFSARVVGGVLF	0.681 ± 0.011
VFSTFGSCHICC	0.636 ± 0.033
VFVCFMSHLRGS	0.58 ± 0.012
VFVPCIFRQIAG	0.6096 ± 0.0019
VFYVGGGAVVRG	0.689 ± 0.023
VFYVGGGSVVRG	0.663 ± 0.011
VGAGRGKGRGGG	0.617 ± 0.013
VGASRFRLSNCF	0.677 ± 0.02
VGCLGGCGCGGV	0.716 ± 0.07
VGCQAIESRLHL	0.737 ± 0.077
VGCSGGRGAGVV	0.649 ± 0.018
VGCSGVYIWGNL	0.707 ± 0.015
VGDIGLEVKLFF	0.72 ± 0.0076
VGDPHPIMQSLL	0.773 ± 0.049
VGEVAGRWCGRG	0.7 ± 0.025
VGFGEGCLSFPF	0.668 ± 0.072
VGFRMAMVVGGL	0.519 ± 0.026
VGFSVLGGRAGW	0.712 ± 0.044
VGGGAVRAWGLR	0.688 ± 0.028
VGGGGAVDGRSG	0.7298 ± 0.0025
VGGGLGGGVVLV	0.6993 ± 0.0011
VGGGPVWREPGT	0.796 ± 0.025
VGGGRGGVVRSG	0.654 ± 0.1
VGGRDDGFVWEG	0.667 ± 0.031
VGGRDWADSLVV	0.772 ± 0.015
VGGVVWIGGVVG	0.667 ± 0.074

Sequence	protein stability index
VGIRTFFRFRMR	0.6692 ± 0.0014
VGKCGSGCLHST	0.6313 ± 0.004
VGLTGFSQLGDG	0.675 ± 0.032
VGPCGGVGHLGS	0.73 ± 0.036
VGPRGFYSFVGG	0.665 ± 0.014
VGRENNENREEE	0.629 ± 0.021
VGRPGGVAQHRG	0.734 ± 0.077
VGSCGAPRLPWP	0.732 ± 0.038
VGSFVGSREGVW	0.613 ± 0.029
VGSGEWTRAMNR	0.673 ± 0.062
VGSLCSRLGRRS	0.765 ± 0.13
VGSLFGFGGRWV	0.645 ± 0.0082
VGSPPVWAAVWG	0.614 ± 0.12
VGSVVRGLVGPY	0.717 ± 0.19
VGTSVTSSFRGK	0.591 ± 0.078
VGVAREGQVGAA	0.694 ± 0.024
VGVCLVSLGSWL	0.605 ± 0.013
VGVGAGQWVVWY	0.682 ± 0.028
VGVGWWVGLWGL	0.693 ± 0.011
VGVPFLVVGVGV	0.583 ± 0.00081
VGVSLVLPDWDV	0.693 ± 0.053
VGWGECPKVECV	0.599 ± 0.1
VGWGWGGGVVLV	0.692 ± 0.0098
VGYGTGGAVGVE	0.691 ± 0.041
VHCGTEPRGPRH	0.709 ± 0.027
VHENVGSGYNLE	0.734 ± 0.14

Sequence	protein stability index
VHPRFSFGPHFV	0.7027 ± 0.00094
VHRKGGRLEILG	0.64 ± 0.033
VHRRRVSVGGGA	0.721 ± 0.05
VHSGKGRQAKER	0.715 ± 0.048
VIACLCGGVMWV	0.577 ± 0.0008
VIEWFVRGRVGG	0.7032 ± 0.00085
VIGWACLCFGAI	0.555 ± 0.0063
VILCPVCFPEEK	0.66459 ± 0.00057
VIMGRGGGNVGG	0.701 ± 0.053
VIMNPGNDFLQK	0.702 ± 0.011
VINKHYINKCQG	0.638 ± 0.088
VIPSCMVFSSTG	0.71 ± 0.049
VITAYHSLTYGA	0.6878 ± 0.0038
VITCGLVLRSVR	0.652 ± 0.031
VITFPAFLPISN	0.702 ± 0.017
VIVRAFRWNLVR	0.605 ± 0.029
VKTGIKQSLTEP	0.6982 ± 0.0037
VKTSRASLSGKL	0.805 ± 0.12
VLAPPPLLPPPY	0.6843 ± 0.0021
VLCIYKLSQVRL	0.654 ± 0.049
VLFGLSTSSLCL	0.644 ± 0.075
VLFHWAGFFLFL	0.525 ± 0.029
VLFPSPSPPLSS	0.7 ± 0.0071
VLFSCLSLCWVF	0.6081 ± 0.005
VLGFGSVPAWIE	0.776 ± 0.048
VLGIVEKRGILR	0.773 ± 0.11

Sequence	protein stability index
VLGPWVLSVLWF	0.546 ± 0.022
VLHLVGFDADVV	0.725 ± 0.021
VLKYSVQHREFS	0.685 ± 0.019
VLLAGRLEEGGE	0.65 ± 0.087
VLLLLLSLLFGV	0.5135 ± 0.0023
VLLSSWLIWLGG	0.62 ± 0.01
VLMGGCGSWMAV	0.6771 ± 0.0044
VLPAGAGKGCVG	0.653 ± 0.052
VLPSSSPPGLRC	0.6698 ± 0.0059
VLQSLRSLRRLG	0.549 ± 0.071
VLRRCGRERGIF	0.688 ± 0.034
VLRRRPNDMRKF	0.6939 ± 0.0062
VLSEHRGLPLTR	0.659 ± 0.066
VLSLPLPSLSLN	0.725 ± 0.18
VLSPLIGRICGH	0.658 ± 0.01
VLSSPPVPAPRP	0.701 ± 0.051
VLSYFFLFSCAS	0.502 ± 0.098
VLVGWWGLGGGV	0.642 ± 0.046
VLVYISDLKRSL	0.689 ± 0.14
VLWLPPSPTPNL	0.721 ± 0.1
VMCECALLVQSR	0.563 ± 0.028
VMCWARGWVGST	0.655 ± 0.05
VMGFCDWLGVFL	0.728 ± 0.012
VMSGPSGARRIW	0.701 ± 0.055
VMVVKSSSNTNI	0.641 ± 0.0077
VMWVGAGVSLSC	0.6411 ± 0.0041

Sequence	protein stability index
VNCFVYGKCCSG	0.648 ± 0.072
VPDRIFRSASQT	0.714 ± 0.0049
VPFDFFVYFFEF	0.5861 ± 0.0018
VPIRSGYLRPNF	0.573 ± 0.038
VPLRLSTVSFGP	0.746 ± 0.12
VPPLFALAPPAP	0.681 ± 0.029
VPPLPPDSCTVT	0.699 ± 0.073
VPPPPPCTIPFP	0.678 ± 0.07
VPSLAVPPEGSV	0.678 ± 0.06
VPSPLPLPPLAP	0.722 ± 0.036
VPVAGSFVGIRF	0.6753 ± 0.004
VPWVFVYGEGVR	0.734 ± 0.024
VPYLPPHLPLPP	0.71 ± 0.043
VQASQFRFSVPL	0.632 ± 0.013
VQAWYWGFFCST	0.785 ± 0.036
VQPAGLEFGPLS	0.6457 ± 0.0015
VQSVIEPSIRYA	0.648 ± 0.014
VRCSLPSPSPRP	0.77 ± 0.015
VRDGPRCPVACP	0.621 ± 0.02
VREMGSPGLYRP	0.713 ± 0.01
VRFRCIPGSPVC	0.643 ± 0.0094
VRFVVVRRFRLP	0.649 ± 0.0076
VRGKYNNGNKKM	0.675 ± 0.013
VRGMGGIGRCVG	0.657 ± 0.074
VRGRGSGGGVAG	0.675 ± 0.065
VRGVCGVGFGVW	0.604 ± 0.046

Sequence	protein stability index
VRHYSSNFAPFI	0.676 ± 0.025
VRIGSEGPGREE	0.677 ± 0.03
VRLHVPLQRFMK	0.73 ± 0.029
VRLIQLLFTLRT	0.53 ± 0.062
VRLRGEGCGWGG	0.7158 ± 0.0022
VRQKTPREQRVY	0.701 ± 0.059
VRQRADSCEAHA	0.659 ± 0.056
VRQSCGSRGFFF	0.729 ± 0.023
VRRAGVGEGITG	0.671 ± 0.052
VRRGGGGGGYGI	0.72 ± 0.031
VRRGGRARRRGS	0.698 ± 0.016
VRRHPQYPLLRV	0.541 ± 0.0099
VRSLLGLPLPGL	0.788 ± 0.041
VRSSLDGDGLCG	0.6869 ± 0.0046
VRTSGRCCPTGP	0.641 ± 0.036
VRVFLSNALFHH	0.596 ± 0.019
VRWCLPPLFTPL	0.693 ± 0.059
VRWGVVGVQGNW	0.678 ± 0.021
VRYGSHRNMSLL	0.819 ± 0.053
VSDLGRFVDRRV	0.636 ± 0.029
VSEFTSHQYDSE	0.746 ± 0.048
VSGASHLCQYIK	0.724 ± 0.072
VSGFEGCYFSDL	0.712 ± 0.039
VSGFFFWRSSFV	0.678 ± 0.028
VSGLRRLVAFAR	0.518 ± 0.0061
VSGVVHRVVVSR	0.7 ± 0.043

Sequence	protein stability index
VSLGNVGYFGSE	0.734 ± 0.039
VSLLSLRAFYKL	0.667 ± 0.05
VSLSPVFLGFYR	0.706 ± 0.024
VSLVGGLGFGVG	0.553 ± 0.028
VSQLGTYICSYL	0.687 ± 0.053
VSRACYTPPQFY	0.68 ± 0.13
VSRCHLLDLSLV	0.642 ± 0.024
VSRGHTEWVGMV	0.702 ± 0.11
VSRWVVCRGGLW	0.65 ± 0.078
VSSVVTTSAIKR	0.715 ± 0.027
VSTPSPPSDSTP	0.685 ± 0.051
VSTRSTVVVSSL	0.662 ± 0.02
VSVIPIVISLSL	0.528 ± 0.036
VSVRGREGLDWK	0.698 ± 0.019
VSVSDSKMARLG	0.676 ± 0.055
VSVSRGTNCCYD	0.686 ± 0.023
VSVSSFCVLQSC	0.547 ± 0.008
VSWGVALAVLRT	0.603 ± 0.029
VSYEFHTRVSKN	0.677 ± 0.039
VSYEGIVKDGSG	0.647 ± 0.083
VTDTFKFYCERL	0.7274 ± 0.0051
VTFFAFPLFFGF	0.602 ± 0.041
VTHSASFSDVFR	0.731 ± 0.034
VTKESPSLCLCV	0.588 ± 0.041
VTLGLSMVQWTY	0.5702 ± 0.0025
VTLRASGQVFPF	0.7891 ± 0.0069

Sequence	protein stability index
VTMQEKTCQLEA	0.705 ± 0.1
VTRGGRVFIVDL	0.807 ± 0.094
VVELRGEKLVGR	0.6784 ± 0.005
VVEYCEGKAVYF	0.695 ± 0.025
VVFISGVYCSRL	0.688 ± 0.1
VVFTTLRHPFRG	0.699 ± 0.027
VVGCCVTKGGGA	0.667 ± 0.048
VVGRLRGNWGSI	0.745 ± 0.039
VVGWGWGGVVRR	0.763 ± 0.02
VVIGCRRVLGCV	0.583 ± 0.03
VVLFFGPRWSLG	0.624 ± 0.068
VVLSASAALFTF	0.578 ± 0.029
VVLWGAVSIVRT	0.616 ± 0.028
VVPDSGESSASG	0.654 ± 0.098
VVVARGGEEGWW	0.656 ± 0.12
VVVLCGGSGGVG	0.652 ± 0.059
VVVSGGGAGFWL	0.728 ± 0.019
VVWGGWGGWGCW	0.81 ± 0.17
VVYWGFVLGFGA	0.582 ± 0.055
VWGERPRFGGWG	0.691 ± 0.038
